Assay [1] has as its target mutated p53^R175H peptide (…) presented by HLA-A2 on target cells (human). Kind of assay: cell-based or functional assay.
Assay [2] addresses p53^R175H/HLA-A2 tetramer labeled with PE (p53^R175H peptide … with Flex-T HLA-A*02:01 monomer, Biolegend cat #280003) (human). Briefly: flow cytometry, PE tetramer staining of gated CD8+GFP+ TCR-transduced primary T cells. A general note: In flow cytometry, cells or beads pass a laser one at a time.

B1: inventive TCR specific for the mutated p53^R175H peptide in the context of HLA-A2, with murine alpha and beta constant regions, expressed from lentiviral … (TCR)
TCR alpha: GIQVEQSPPDLILQEGANSTLRCNFSDSVNNLQWFHQNPWGQLINLFYIPSGTKQNGRLSATTVATERYSLLYISSSQTTDSGVYFCAVNQAGTALIFGKGTTLSVSSNIQNPEPAVYQLKDPRSQDSTLCLFTDFDSQINVPKTMESGTFITDKTVLDMKAMDSKSNGAIAWSNQTSFTCQDIFKETNATYPSSDVPCDATLTEKSFETDMNLNFQNLSVMGLRILLLKVAGFNLLMTLRLWSS
TCR beta: EPEVTQTPSHQVTQMGQEVILRCVPISNHLYFYWYRQILGQKVEFLVSFYNNEISEKSEIFDDQFSVERPDGSNFTLKIRSTKLEDSAMYFCASMGTGDEAFFGQGTRLTVVEDLRNVTPPKVSLFEPSKAEIANKQKATLVCLARGFFPDHVELSWWVNGKEVHSGVSTDPQAYKESNYSYCLSSRLRVSATFWHNPRNHFRCQVQFHGLSEEDKWPEGSPKPVTQNISAEAWGRADCGITSASYQQGVLSATILYEILLGKATLYAVLVSTLVVMAMVKRKNS
In assay [1], B1 gave an avidity (lowest activating peptide concentration), CD8+ primary T cells against CD8-negative JRT cells of 10 fold; a percentage of CD8+CD137+ cells in the gated GFP+ cells of 1 ng/mL; a percentage of CD69+ cells in the gated GFP+ JRT cells of 10 ng/mL.

B2: inventive TCR specific for the mutated p53^R175H peptide in the context of HLA-A2, with murine alpha and beta constant regions, expressed from lentiviral … (TCR, V domains shown)
V domain 1: GIQVEQSPPDLILQEGANSTLRCNFSDSVNNLQWFHQNPWGQLINLFYIPSGTKQNGRLSATTVATERYSLLYISSSQTTDSGVYFCAVNQAGTALIFGKGTTLSVSS
V domain 2: EPEVTQTPSHQVTQMGQEVILRCVPISNHLYFYWYRQILGQKVEFLVSFYNNEISEKSEIFDDQFSVERPDGSNFTLKIRSTKLEDSAMYFCASMGTGDEAFFGQGTRLTVVE
With B2, the percent of cells binding tetramer in assay [2] turned out to be 82.9%.

The values above are taken from patent US20240415886A1.
